From paper PMC8213806 (Nature Communications, 2021)

Experiments:
Assay in all cases: pull-down
Conditions in all cases: both partners purified
TcdB1 holotoxin D1812G = TcdB1 holotoxin D1812G (Clostridioides difficile (VPI10463 …, UniProt P18177 1-2366, D1812G))
[1] = molecular target: TcdB1 holotoxin V1816G/L1818G (Clostridioides difficile (VPI10463 …, UniProt P18177 1-2366, V1816G | L1818G))
TcdB1 holotoxin Y621A = TcdB1 holotoxin Y621A (Clostridioides difficile (VPI10463 …, UniProt P18177 1-2366, Y621A))
TcdB1 holotoxin Y603G = TcdB1 holotoxin Y603G (Clostridioides difficile (VPI10463 …, UniProt P18177 1-2366, Y603G))
TcdB1 holotoxin S567E = TcdB1 holotoxin S567E (Clostridioides difficile (VPI10463 …, UniProt P18177 1-2366, S567E))
[2] = molecular target: TcdB1 holotoxin L563G/I566G (Clostridioides difficile (VPI10463 …, UniProt P18177 1-2366, L563G | I566G))
[3] = molecular target: TcdB1 holotoxin F1823G/I1825G/M1831G (Clostridioides difficile (VPI10463 …, UniProt P18177 1-2366, F1823G | I1825G | M1831G))
TcdB1 holotoxin N1850A = TcdB1 holotoxin N1850A (Clostridioides difficile (VPI10463 …, UniProt P18177 1-2366, N1850A))
TcdB1 holotoxin N1758A = TcdB1 holotoxin N1758A (Clostridioides difficile (VPI10463 …, UniProt P18177 1-2366, N1758A))

Measured: binding result

B1: Repeat1-Fc (CSPG4 Repeat1, residues 410–551, fused to the N-terminus of human IgG1 Fc) (Fc fusion)
chain: ELPEPCVPEPGLPPVFANFTQLLTISPLVVAEGGTAWLEWRHVQPTLDLMEAELRKSQVLFSVTRGARHGELELDIPGAQARKMFTLLDVVNRKARFIHDGSEDTSDQLVLEVSVTARVPMPSCLRRGQTYLLPIQVNPVND
notes: also called CSPG4 decoy; source: FreeStyle HEK 293 cells, secreted, purified (Ni-NTA); not shown: Fc (human IgG1), C-terminal, kept
binds: TcdB1 holotoxin D1812G | [1] | TcdB1 holotoxin Y621A | TcdB1 holotoxin Y603G | TcdB1 holotoxin S567E | [2] | [3] | TcdB1 holotoxin N1850A | TcdB1 holotoxin N1758A
